Assay results published in IntAct's records for PubMed 18787122.

B1: Secreted effector protein SifA (Salmonella typhimurium), Q56061 (parent)
chain: MPITIGNGFLKSEILTNSPRNTKEAWWKVLWEKIKDFFFSTGKAKADRCLHEMLFAERAPTRERLTEIFFELKELACASQRDRFQVHNPHENDATIILRIMDQNEENELLRITQNTDTFSCEVMGNLYFLMKDRPDILKSHPQMTAMIKRRYSEIVDYPLPSTLCLNPAGAPILSVPLDNIEGYLYTELRKGHLDGWKAQEKATYLAAKIQSGIEKTTRILHHANISESTQQNAFLETMAMCGLKQLEIPPPHTHIPIEKMVKEVLLADKTFQAFLVTDPSTSQSMLAEIVEAISDQVFHAIFRIDPQAIQKMAEEQLTTLHVRSEQQSGCLCCFL
partner: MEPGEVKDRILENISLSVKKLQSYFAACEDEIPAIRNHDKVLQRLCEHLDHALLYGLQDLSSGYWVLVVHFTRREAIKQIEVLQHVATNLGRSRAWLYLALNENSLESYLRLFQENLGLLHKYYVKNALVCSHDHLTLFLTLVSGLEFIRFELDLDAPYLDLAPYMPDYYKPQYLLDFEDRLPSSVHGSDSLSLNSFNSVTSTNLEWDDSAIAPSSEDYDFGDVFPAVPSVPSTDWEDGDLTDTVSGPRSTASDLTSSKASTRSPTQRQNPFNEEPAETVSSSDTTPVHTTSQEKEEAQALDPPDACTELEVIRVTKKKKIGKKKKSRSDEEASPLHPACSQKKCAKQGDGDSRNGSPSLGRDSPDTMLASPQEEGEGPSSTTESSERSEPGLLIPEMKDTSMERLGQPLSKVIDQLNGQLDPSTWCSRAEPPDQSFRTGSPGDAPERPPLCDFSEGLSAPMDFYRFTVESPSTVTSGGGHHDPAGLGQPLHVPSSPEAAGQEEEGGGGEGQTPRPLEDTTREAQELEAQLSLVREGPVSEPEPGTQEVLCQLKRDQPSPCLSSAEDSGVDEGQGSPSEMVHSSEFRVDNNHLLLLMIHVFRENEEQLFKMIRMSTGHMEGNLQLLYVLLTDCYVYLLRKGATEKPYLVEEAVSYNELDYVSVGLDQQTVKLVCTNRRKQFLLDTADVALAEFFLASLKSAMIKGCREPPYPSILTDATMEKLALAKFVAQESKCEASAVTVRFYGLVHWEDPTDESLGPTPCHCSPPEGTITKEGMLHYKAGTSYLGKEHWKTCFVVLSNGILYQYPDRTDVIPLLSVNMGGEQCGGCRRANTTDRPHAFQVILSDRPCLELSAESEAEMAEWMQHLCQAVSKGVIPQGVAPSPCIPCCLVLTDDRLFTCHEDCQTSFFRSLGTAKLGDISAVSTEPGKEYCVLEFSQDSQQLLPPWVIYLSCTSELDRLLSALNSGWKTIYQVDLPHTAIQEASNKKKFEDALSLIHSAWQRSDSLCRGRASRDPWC

Variants of: B1
Conditions: with pkhm2_human PLEKHM2, Q8IWE5

Row | Variant | effect of a mutation on the interaction
1 | MPITIGNGFLKSEILTNSPRNTKEAWWKVLWEKIKDFFFSTGKAKADRCLHEMLFAERAPTRERLTEIFFELKELACASQRDRFQVHNPHENDATIILRIMDQNEENELLRITQNTDTFSCEVMGNLYFLMKDRPDILKSHPQMTAMIKRRYSEIVDYPLPSTLCLNPAGAPILSVPLDNIEGYLYTELRKGHLDGAKAQAKATYLAAKIQSGIEKTTRILHHANISESTQQNAFLETMAMCGLKQLEIPPPHTHIPIEKMVKEVLLADKTFQAFLVTDPSTSQSMLAEIVEAISDQVFHAIFRIDPQAIQKMAEEQLTTLHVRSEQQSGCLCCFL [W197A;E201A] | decreasing interaction
